{
  "source": "patent US20160369010A1",
  "about": "(AstraZeneca / MedImmune, published 2016)",
  "binders": {"B1": {"name": "PC9#2 GLP-1 analogue heavy chain fusion (antibody, IgG1)", "VH": "HGEGTFTSDVSSYLEEQAAKEFIAWLVKGGGGGGGSGGGGSGGGGSAQVQLVQSGAEVKKPGASVKVSCKASGYTFTSYYMHWVRQAPGQGLEWMGEIHPSGGRTNYNEKFKSRVTMTRDTSTSTVYMELSSLRSEDTAVYYCARERPLYASDLWGQGTTVTVSS", "VL": "DIQMTQSPSSLSASVGDRVTITCKASQDVHTAVAWYQQKPGKAPKLLIYHASYRYTGVPSRFSGSGSGTDFTFTISSLQPEDIATYYCQQRYSLWRTFGQGTKLEIK", "notes": "IgG1-TM; descriptive name; also called heavy chain peptide antibody fusion of PC9#2"}, "B2": {"name": "PC9#6_DSB7_V19A (antibody, IgG1)", "VH": "QVQLVQSGAEVKKPGSSVKVSCKASGGTFNSHAISWVRQAPGQGLEWMGGINPILGIANYAQKFQGRVTITADESTSTAYMELSSLRSEDTAVYYCARHYEIQIGRYGMNVYYLMYRFASWGQGTLVTVSS", "VL": "HGEGTFTSDLSKQMEEECARLFIEWLKNGGPSSGAPPPGCGGGGGSGGGGSGGGGSADIQMTQSPSSLSASVGDRVTITCRASQGIRSALNWYQQKPGKAPKLLIYNGSTLQSGVPSRFSGSGSGTDFTLTISSLQPEDFAVYYCQQFDGDPTFGQGTKVEIK", "notes": "IgG1-TM"}, "B3": {"name": "PC9#2_GLP-1_VL (antibody, IgG1)", "VH": "QVQLVQSGAEVKKPGASVKVSCKASGYTFTSYYMHWVRQAPGQGLEWMGEIHPSGGRTNYNEKFKSRVTMTRDTSTSTVYMELSSLRSEDTAVYYCARERPLYASDLWGQGTTVTVSS", "VL": "HGEGTFTSDVSSYLEEQAAKEFIAWLVKGGGGGGGSGGGGSGGGGSADIQMTQSPSSLSASVGDRVTITCKASQDVHTAVAWYQQKPGKAPKLLIYHASYRYTGVPSRFSGSGSGTDFTFTISSLQPEDIATYYCQQRYSLWRTFGQGTKLEIK", "notes": "IgG1-TM; also called light chain peptide antibody fusion of PC9#2"}, "B4": {"name": "HS9_DSB7_V19A (antibody)", "VH": "B3 VH with H52S, R57S, N59S, E62Q, K65Q, S66G", "VL": "HGEGTFTSDLSKQMEEECARLFIEWLKNGGPSSGAPPPGCGGGGGSGGGGSGGGGSADIQMTQSPSSLSASVGDRVTITCQASQDVKTAVAWYQQKPGKAPKLLIYSASYRYTGVPSRFSGSGSGTDFTFTISSLQPEDIATYYCQQRYSLWRTFGQGTKLEIK"}, "B5": {"name": "PC9#3 GLP-1 analogue heavy chain fusion (antibody, IgG1)", "VH": "HGEGTFTSDVSSYLEEQAAKEFIAWLVKGGGGGGGSGGGGSGGGGSAEVQLVESGGGLVQPGGSLRLSCAASGFTFNNYAMNWVRQAPGKGLDWVSTISGSGGTTNYADSVKGRFIISRDSSKHTLYLQMNSLRAEDTAVYYCAKDSNWGNFDLWGRGTLVTVSS", "VL": "not shown", "notes": "IgG1-TM; descriptive name; also called heavy chain peptide antibody fusion of PC9#3"}, "B6": {"name": "anti-B7-H1 antibody 2.7A4 (antibody, V domains shown)", "VH": "EVQLVESGGGLVKPGGSLRLSCAASGFTFSTYSMNWVRQAPGKGLEWVSSISSSGDYIYYADSVKGRFTISRDNAKNSLYLQMNSLRAEDTAVYYCARDLVTSMVAFDYWGQGTLVTVSS", "VL": "SYELTQPPSVSVSPGQTARITCSGDALPQKYVFWYQQKSGQAPVLVIYEDSKRPSGIPERFSGSSSGTMATLTISGAQVEDEADYYCYSTDRSGNHRVFGGGTKLTVL"}},
  "key": {"[1]": {"target": "T1, Recombinant human Avi_PCSK9_Flag_His (human, UniProt Q8NBP7 31-692, biotinylated in the HTRF and LDL-R competition assays)", "T1 construct": "In-house protein; also called human PCSK9; huPCSK9", "assay": "HTRF epitope competition: unlabelled compound titrated against a DyLight 650-labelled anti-PCSK9 antibody for biotinylated human PCSK9; % specific binding [panel B]", "method": "(§1) PCSK9 activity of each peptide-antibody fusions was assessed using Homogenous Time Resolved Fluorescence (HTRF) epitope competition assays.\n(§2) For the assay all samples and reagents were prepared in assay buffer containing 1X Phosphate Buffered Saline, 0.1% BSA (Sigma A9576) and 0.4M Potassium Fluoride. Test samples of peptide-antibody fusions or control antibodies were prepared in 384 well polypropylene plates by 3-fold serial dilutions. […] Delta F% was then calculated using the following equation."}, "[2]": {"target": "T1, Recombinant human Avi_PCSK9_Flag_His", "assay": "binding ELISA on coated human PCSK9 (10 ug/mL), single concentration, detection with cryptate labelled Fc specific anti human IgG"}, "[3]": {"target": "T1, Recombinant human Avi_PCSK9_Flag_His", "assay": "HTRF epitope competition: unlabelled compound titrated against a DyLight 650-labelled anti-PCSK9 antibody for biotinylated human PCSK9; % specific binding [panel B]", "remark": "listed apart in the source", "method": "as §1, §2"}, "human GLP-1 receptor": {"target": "human GLP-1 receptor (human, UniProt P43220 24-463)", "sequence (P43220 24-463)": "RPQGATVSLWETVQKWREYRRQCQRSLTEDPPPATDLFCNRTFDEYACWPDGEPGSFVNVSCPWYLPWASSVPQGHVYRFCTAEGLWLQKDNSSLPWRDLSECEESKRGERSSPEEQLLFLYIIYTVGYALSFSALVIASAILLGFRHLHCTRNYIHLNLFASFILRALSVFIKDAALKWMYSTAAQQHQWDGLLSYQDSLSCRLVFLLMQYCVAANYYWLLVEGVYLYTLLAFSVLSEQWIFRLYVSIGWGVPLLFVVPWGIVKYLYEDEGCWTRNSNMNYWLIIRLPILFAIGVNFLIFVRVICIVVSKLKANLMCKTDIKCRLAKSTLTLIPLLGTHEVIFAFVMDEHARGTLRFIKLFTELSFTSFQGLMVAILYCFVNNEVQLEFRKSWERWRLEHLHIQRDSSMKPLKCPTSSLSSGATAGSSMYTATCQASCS", "assay": "cell-based or functional assay"}, "[4]": {"target": "T1, Recombinant human Avi_PCSK9_Flag_His", "assay": "SPR (Biacore 2000)"}, "[5]": {"target": "T2, Flag/His tagged human CD86 (in-house) (human, UniProt P42081 24-247, limits assumed)", "T2 sequence (looked up)": "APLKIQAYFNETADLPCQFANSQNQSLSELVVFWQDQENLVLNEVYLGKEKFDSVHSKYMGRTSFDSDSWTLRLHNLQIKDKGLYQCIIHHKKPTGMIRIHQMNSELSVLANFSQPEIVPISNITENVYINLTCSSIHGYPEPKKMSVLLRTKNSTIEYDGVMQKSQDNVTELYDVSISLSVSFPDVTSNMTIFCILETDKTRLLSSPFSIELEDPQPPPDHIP", "assay": "DELFIA TRF, antigen coated at 10 µg/mL"}, "[6]": {"target": "T1, Recombinant human Avi_PCSK9_Flag_His", "assay": "HTRF epitope competition: unlabelled compound titrated against a DyLight 650-labelled anti-PCSK9 antibody for biotinylated human PCSK9; % specific binding [panel C]", "method": "as §1, §2"}, "[7]": {"target": "recombinant human B7-H1 (in house) (human, UniProt Q9NZQ7 19-238, limits assumed)", "sequence (Q9NZQ7 19-238 limits assumed)": "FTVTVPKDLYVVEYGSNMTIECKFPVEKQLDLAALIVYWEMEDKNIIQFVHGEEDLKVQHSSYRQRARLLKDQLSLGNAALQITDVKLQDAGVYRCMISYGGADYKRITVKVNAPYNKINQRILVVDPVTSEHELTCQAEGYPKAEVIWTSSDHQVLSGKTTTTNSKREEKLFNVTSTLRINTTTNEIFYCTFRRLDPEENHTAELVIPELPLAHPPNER", "assay": "binding ELISA on coated human B7-H1 (5 ug/mL), compound at 10 ug/mL, detection with cryptate labelled Fc specific anti human IgG; positive control", "method": "Binding ELISA was performed by coating human B7-H1 (in house) at 5 ug/mL in 1× Phosphate Buffered Saline. After plate blocking with 1×Phosphate Buffered Saline, 3% skimmed milk, compounds were added at 10 ug/mL in PBS and incubated for 2 h at room temperature before washing."}},
  "note": "Numbering of substitutions follows the chain as printed.",
  "data": [
    {"binder": "B1", "values": [
      {"measurement": "IC50 (read off the curve)", "setting": "[1]", "result": "~700", "unit": "pM"}
    ]},
    {"binder": "B2", "values": [
      {"measurement": "binding result", "setting": "[2]", "result": "no binding (tested: 100 ug/mL)"}
    ]},
    {"binder": "B3", "values": [
      {"measurement": "IC50 (read off the curve)", "setting": "[3]", "result": "~400", "unit": "pM"},
      {"measurement": "x change (against GLP1-Fc)", "setting": "human GLP-1 receptor", "result": 2.4, "unit": "fold"},
      {"measurement": "x change of Kd, PC9#2_GLP1 against PC9#2", "setting": "[4]", "result": 2.7, "unit": "fold"}
    ]},
    {"binder": "B4", "values": [
      {"measurement": "binding result", "setting": "[5]", "result": "no binding (tested: 25 µg/mL)"}
    ]},
    {"binder": "B5", "values": [
      {"measurement": "IC50 (read off the curve)", "setting": "[6]", "result": "~90", "unit": "pM"}
    ]},
    {"binder": "B6", "values": [
      {"measurement": "binding result", "setting": "[7]", "result": "binds"}
    ]}
  ]
}
